The values below are quoted from earlier work in PMC3040723.

The Kd is the constant that tells how readily two partners part at equilibrium.

The target in this series is IscU (Escherichia coli) (UniProt P0ACD4).
IscU (Escherichia coli), sequence (P0ACD4 whole entry): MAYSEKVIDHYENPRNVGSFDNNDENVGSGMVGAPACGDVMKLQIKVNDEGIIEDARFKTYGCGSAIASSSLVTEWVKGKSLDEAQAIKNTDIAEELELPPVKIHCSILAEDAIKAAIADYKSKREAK

HscB, sequence (P0A6L9 whole entry): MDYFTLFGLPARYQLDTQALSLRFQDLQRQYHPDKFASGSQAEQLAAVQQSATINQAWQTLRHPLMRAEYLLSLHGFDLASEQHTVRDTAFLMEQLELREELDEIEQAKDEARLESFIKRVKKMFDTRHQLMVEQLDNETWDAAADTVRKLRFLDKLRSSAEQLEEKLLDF

Turning to HscB (from UniProt P0A6L9), the Kd is 13 µM.
